Here are results for 1 molecule from patent US20190161555A1 (ALLIGATOR BIOSCIENCE, published 2019).

Test [1] deals with T1, human/mouse 5T4 chimera E7.
T1 construct: on stably transfected CHO cells
Kind of test: flow cytometry, cells with 5T4 chimera; % positive cells over that of the best clone. The procedure: (§1) Epitope mapping was performed by investigation of loss of binding by the antibodies using a panel of human/mouse chimeric 5T4 constructs by flow cytometry. […] Two strategies were used for the epitope mapping as illustrated in FIG. 5. In one approach, seven human/mouse 5T4 chimeras were constructed based on dividing 5T4 into seven different domains (FIG. 5). By replacing each domain with the corresponding mouse sequence seven human/mouse 7 5T4 human/mouse chimeras were generated. The chimeras were generated using the human protein 5T4 sequence NP_006661.1 (reference mRNA sequence NM_006670.4) and the corresponding mouse sequence NP_035757.2 (reference mRNA sequence NM_011627.4). The human/mouse chimeric DNA constructs, as well as human and mouse wild-type 5T4, were cloned into pcDNA3.1 expression vectors. […] In the other approach, cells transfected with a human/mouse 5T4 chimera (Woods et al., 2002) was used, in which mouse sequence in amino acid 173-420 replaced the human sequence (FIG. 5). As controls human 5T4 and mouse 5T4-transfected cells were used.
(§2) For flow cytometric analysis, cells were stained with different 5T4 antibodies diluted in FACS buffer (PBS, 0.5% BSA). […] Samples were analysed by FACSverse (BD Biosciences, Heidelberg, Germany) and % positive cells were determined. To compensate for variations in % 5T4 positive cells in the various transfected populations, binding levels were normalized within each chimera by dividing % positive cells for each clone with % positive cells for the clones resulting in the highest % positive cells (% pos cellsclonX/% positive cellsₘₐₓ). A normalized value≤0.75 was defined as mAb binding being dependent on the replaced region, whereas a normalized value≤0.25 was defined as complete dependence.
(A flow cytometer gives signals particle by particle.)

The target in test [2] is T2, human/mouse 5T4 chimera E1.
T2 construct: on stably transfected CHO cells
The description is as above. The procedure: as §1, §2

Test [3] concerns the target T3, human/mouse 5T4 chimera E4.
T3 construct: on stably transfected CHO cells
Described as above. The protocol: as §1, §2

The target in test [4] is T4, human/mouse 5T4 chimera E5.
T4 construct: on stably transfected CHO cells
The description is as above. The procedure:
as §1, §2

The target of test [5] is T5, human/mouse 5T4 chimera E3.
T5 construct: on stably transfected CHO cells
The test is described as above. The protocol:
as §1, §2

The target of test [6] is T6, human/mouse 5T4 chimera E2.
T6 construct: on stably transfected CHO cells
Described as above. The procedure: as §1, §2

Test [7] has as its target T7, human/mouse 5T4 chimera E6.
T7 construct: on stably transfected CHO cells
The description is as above. The protocol: as §1, §2

Test [8] concerns the target T8, human 5T4 on transfected cells (human, UniProt Q13641 32-420).
T8 construct: whole, on cells; for B16 and A9 cells only a 5T4 construct is named; also called 5T4-transfected B16 cells; B16-5T4
T8 sequence (looked up): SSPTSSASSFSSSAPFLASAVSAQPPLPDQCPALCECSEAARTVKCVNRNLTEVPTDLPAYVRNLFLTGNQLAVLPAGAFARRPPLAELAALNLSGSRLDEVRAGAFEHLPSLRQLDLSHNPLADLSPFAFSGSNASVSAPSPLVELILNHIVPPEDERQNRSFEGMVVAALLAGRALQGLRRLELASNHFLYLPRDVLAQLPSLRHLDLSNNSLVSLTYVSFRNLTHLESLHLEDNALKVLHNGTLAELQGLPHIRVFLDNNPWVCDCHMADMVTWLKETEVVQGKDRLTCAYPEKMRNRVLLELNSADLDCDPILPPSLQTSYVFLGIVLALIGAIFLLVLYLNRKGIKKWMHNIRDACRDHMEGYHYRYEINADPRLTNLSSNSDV
Briefly: flow cytometry, 5T4-transfected A9 cells. The protocol: (§3) Analysis of 5T4 mAb binding with flow cytometry was performed using 5T4-transfected cell lines and as negative control, mock transfected cells. Three different transfected cell lines used were used for this study; B16, A9 and CHO, transfected either with a 5T4 construct or with an empty vector control construct. Cells were stained with 5T4 antibodies diluted in FACS buffer (PBS, 0.5% BSA and 0.02% NaN₃). […] Samples were analysed either on a FACSCalibur or a FACSverse (BD Biosciences, Heidelberg, Germany) and mean fluorescence intensity (MFI) determined.

The target of test [9] is T9, 5T4 (immobilised for SPR) (UniProt Q13641 32-355, limits assumed, biotinylated on the MASS-1 platform).
T9 construct: also called biotinylated 5T4
T9 sequence (looked up): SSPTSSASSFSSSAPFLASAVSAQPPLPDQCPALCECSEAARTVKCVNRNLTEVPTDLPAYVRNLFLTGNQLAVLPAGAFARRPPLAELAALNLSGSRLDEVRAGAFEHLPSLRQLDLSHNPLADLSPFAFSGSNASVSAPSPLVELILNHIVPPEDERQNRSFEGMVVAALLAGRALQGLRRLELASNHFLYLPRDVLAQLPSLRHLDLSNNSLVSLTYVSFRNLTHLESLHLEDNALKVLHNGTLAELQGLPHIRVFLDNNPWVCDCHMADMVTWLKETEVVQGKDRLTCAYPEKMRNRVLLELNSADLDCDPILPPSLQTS
Briefly: SPR Biacore 3000, 5T4 amine-coupled, mAb injected, 1:1 Langmuir. The protocol: Binding kinetics of the 5T4-specific mAbs have been studied using two different SPR-based platforms, the Biacore 3000 (GE Healthcare) and the MASS-1 platform (Sierra Sensors). Briefly, 5T4 was captured at the sensor chip surface either via direct amine coupling (Biacore platform) or using a streptavidin coated chip and biotinylated 5T4 (MASS-1 platform). The different 5T4-specific mAbs were then injected over the chip in increasing concentrations and the association and dissociation rates studied in real time. A 1:1 Langmuir model was used for curve fitting.
Background: SPR reads the build-up and loss of mass on a sensor chip optically.

The target in another test is T10, 5T4-Fc (human, UniProt Q13641 32-355, limits assumed).
T10 construct: obtained from Peter L. Stern, University of Manchester; also called h5T4-Fc; recombinant 5T4
T10 sequence (looked up): T9 sequence (looked up)
Kind of test: ELISA, plates coated with 5T4-Fc. The protocol: ELISA was performed using a standard protocol. Plates (#655074, Greiner Bio-One GmbH, Germany) were pre-coated with 0.5 μg/ml 5T4-Fc (obtained from Peter L. Stern, University of Manchester) overnight. 5T4 antibodies were diluted from 6 to 1.5×10⁻³ μg/ml in 1:4 dilutions and added in duplicates of 50 μl to each well. Binding was detected with rabbit anti-h kappa L-chain-HRP (P0129, Dako Denmark) and the ELISA was developed with SuperSignal ELISA PICO Chemiluminescent substrate (Thermo Scientific Pierce, Rockford, Ill. USA) for 2-10 minutes and read in an automated microplate based multi-detection reader (FLUOstar OPTIMA, Netherlands).

In test [10] the target is T11, cynomolgus 5T4 (Macaca mulatta (cynomolgus)).
T11 construct: whole, on cells; stably transfected CHO cells; also called cyno5T4; cy5T4
Kind of test: flow cytometry, CHO cells with cynomolgus 5T4 against CHO cells with human 5T4. The procedure: (§4) The potency of 5T4 antibodies in binding to cynomolgus 5T4 was determined by flow cytometry. CHO cells were stably transfected with […] (cynomolgus) 5T4. […] Samples were analysed either on a FACSCalibur or a FACSverse (BD Biosciences, Heidelberg, Germany) and mean fluorescence intensity (MFI) determined. […] To compare the EC50 values between human and cynomolgus 5T4, the cy5T4/hu5T4 ratio was calculated from the experiment with the full dose-response.

The target in test [11] is T11, cynomolgus 5T4. Kind of test: flow cytometry, CHO cells transfected with cynomolgus 5T4. The protocol: as §4
Another test addresses T12, mouse 5T4 (mouse, UniProt Q9Z0L0 32-426).
T12 construct: whole, on cells; also called murine 5T4
T12 sequence (looked up): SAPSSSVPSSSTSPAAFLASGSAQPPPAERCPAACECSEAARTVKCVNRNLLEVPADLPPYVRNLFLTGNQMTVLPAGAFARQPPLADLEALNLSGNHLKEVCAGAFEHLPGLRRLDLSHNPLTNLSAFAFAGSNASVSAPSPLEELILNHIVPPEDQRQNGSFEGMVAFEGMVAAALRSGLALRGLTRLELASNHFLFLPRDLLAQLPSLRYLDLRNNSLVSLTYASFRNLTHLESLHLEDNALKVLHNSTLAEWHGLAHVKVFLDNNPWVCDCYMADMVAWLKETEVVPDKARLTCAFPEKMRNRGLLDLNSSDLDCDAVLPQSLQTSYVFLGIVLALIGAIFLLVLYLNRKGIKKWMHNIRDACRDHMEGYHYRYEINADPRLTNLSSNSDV
Briefly: flow cytometry, mouse 5T4-transfected cells.

The target of test [12] is T8, human 5T4 on transfected cells. Briefly: flow cytometry, 5T4-transfected B16 cells. The protocol:
as §3

The kon is the second-order rate constant of association. Low values mean slow association, high ones fast association. In general, EC50 refers to the concentration that produces a half-maximal response. A low value points to higher potency in that assay.

B1: 1212/1213 (antibody, IgG1, V domains shown)
VH: EVQLLESGGGLVQPGGSLRLSCAASGFTFSSYAMSWVRQAPGKGLEWVSYISSYGGYTSYADSVKGRFTISRDNSKNTLYLQMNSLRAEDTAVYYCARYHSGVLDYWGQGTLVTVSS
VL: DIQMTQSPSSLSASVGDRVTITCRASQSISSYLNWYQQKPGKAPKLLIYAASSLQSGVPSRFSGSGSGTDFTLTISSLQPEDFATYYCQQYYYHYLLTFGQGTKLEIK
notes: 5T4 antibody
For B1, the “normalized % positive cells” value in test [1] was found to be 0.88; in test [2], 0.89; in test [3], 1; in test [4], 0.84; in [5] it was 0.93; in [6], 0.9. The “normalized % positive cells” value in test [7] was determined as 0.03. For the same molecule, the “Normalized EC50 (to 1628)” value was 0.4 ratio to 1628 in test [8] and 1.1 ratio to 1628 in [12]. In test [9], this molecule yielded a kon of 450000 M⁻¹ s⁻¹. The EC50 was 0.56 nM in the test with 5T4-Fc, 30.7 nM in the test with cynomolgus 5T4 [11] and 1.4 nM in test [12]. Besides, in the test with cynomolgus 5T4 [10], the “Ratio EC50cyno-5T4/h5T4” value was 140 ratio. Besides, the binding result with mouse 5T4 is recorded as “no binding”.
